Columns and labels:
[1] = target: human CD24 on cells (human) (UniProt P25063); assay: flow cytometry (GMFI), MCF-7 cells; EC50 table under the graphs
[2] = target: human CD24 on cells (human) (UniProt P25063); assay: flow cytometry (GMFI), SKOV3 cells; EC50 table under the graphs [Cont'd) B]
[3] = target: human CD24 on cells (human) (UniProt P25063); assay: cell-based or functional assay
[4] = target: human CD24 on cells (human) (UniProt P25063); assay: flow cytometry (MFI), NALM6 cells [Cont'd) B]
[5] = target: human CD24 on cells (human) (UniProt P25063)
[6] = target: human CD24 on cells (human) (UniProt P25063); assay: flow cytometry (MFI), MCF-7 cells [Cont'd) B]
Human CD24 (human) = Human CD24 (human) (UniProt P25063); assay: Biacore (SPR); antibody as ligand, human CD24 as analyte
CD24-his protein (human) [7] = target: CD24-his protein (human) (UniProt P25063); assay: Siglec10-PE competition assay (gMFI on the sheet); legend: Siglec-10-his-Biotin mixed with the antibody, plate coated with CD24 protein
[8] = target: human CD24 on cells (human) (UniProt P25063); assay: flow cytometry (GMFI), OVCAR3 cells
[9] = target: human CD24 on cells (human) (UniProt P25063); assay: flow cytometry (GMFI), MC38-hCD24 cells [Cont'd) C]
CD24-his-GST(Ecoli) = assay: ELISA, CD24-his-GST(Ecoli) [Cont'd) B]
[10] = target: human CD24 on cells (human) (UniProt P25063); assay: flow cytometry (GMFI), MCF-7 cells
CD24-his protein (human) [11] = target: CD24-his protein (human) (UniProt P25063); assay: ELISA, CD24-his(HEK 293) [Cont'd) B]
[12] = target: human CD24 on cells (human) (UniProt P25063); assay: flow cytometry (GMFI), NALM6 cells
[13] = target: human CD24 on cells (human) (UniProt P25063); assay: flow cytometry (GMFI), MCF-7 cells [Cont'd) C]
[14] = target: human CD24 on cells (human) (UniProt P25063); assay: flow cytometry (GMFI), A549 cells
CD24-his protein (human) [15] = target: CD24-his protein (human) (UniProt P25063); assay: ELISA, CD24-his (HEK 293), unit taken from the concentration axis

Sequence of Human CD24 (human) (P25063 27-59 limits assumed): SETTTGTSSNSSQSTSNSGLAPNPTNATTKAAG
Sequence of CD24-his protein (human) (P25063 27-59 limits assumed): as above
Sequence of human CD24 on cells (human) (P25063 27-59): as the sequence (P25063 27-59 limits assumed) above
Sequence of CD24-his-GST(Ecoli) (chain, as listed by the source limits assumed): as the sequence (P25063 27-59 limits assumed) above

Row | Substance | EC50 [1] [µg/mL] | EC50 [2] [µg/mL] | Kd (Human CD24 (human)) [nM] | EC50 (read off the curve) [8] [µg/mL] | EC50 (read off the curve) [10] [µg/mL] | EC50 (read off the curve) (CD24-his protein (human) [11]) [µg/mL] | EC50 (read off the curve) [12] [µg/mL] | EC50 (read off the curve) [13] [µg/mL] | EC50 (read off the curve) [14] [µg/mL] | EC50 (CD24-his protein (human) [15]) [µg/mL] | also measured
1 | NS-17(SWA11) (antibody) |  |  |  |  |  |  |  |  |  |  | EC50 of Phagocytosis assay, IgG1, Kappa; MCF-7 [3]: 0.02 µg/mL; EC50 of Phagocytosis assay, IgG1, Kappa; NALM6 [3]: 1.01 µg/mL; EC50 of Phagocytosis assay, IgG1, Kappa; OVCAR3 [3]: 0.91 µg/mL; EC50 of Phagocytosis assay, IgG4, Kappa; MCF-7 [3]: 0.09 µg/mL; EC50 of Phagocytosis assay, IgG4, Kappa; NALM6 [3]: 0.18 µg/mL
2 | anti-CD24 ab(SN3) (antibody) |  |  |  |  |  |  |  |  |  |  | EC50 (read off the curve) [4]: 0.09 µg/mL; EC50 (read off the curve), phagocytosis of NALM6 cells [5]: 0.3 µg/mL; EC50 (read off the curve), phagocytosis of OVCAR3 cells [5]: 0.7 µg/mL; EC50 (read off the curve) [6]: 0.1 µg/mL
3 | IMM47H (antibody) | 0.53 | 0.38 | 165 | 0.4 | 0.5 | 0.03 | 0.3 | 0.3 | 0.3 | 0.0277 | 

More lines, main results first:

Row | EC50 [1] [µg/mL] | EC50 [2] [µg/mL] | Kd (Human CD24 (human)) [nM] | EC50 (read off the curve) [8] [µg/mL] | EC50 (read off the curve) [10] [µg/mL] | EC50 (read off the curve) (CD24-his protein (human) [11]) [µg/mL] | EC50 (read off the curve) [12] [µg/mL] | EC50 (read off the curve) [13] [µg/mL] | EC50 (read off the curve) [14] [µg/mL] | EC50 (CD24-his protein (human) [15]) [µg/mL] | Substance | also measured
4 | 12.9 | 3.48 |  |  |  |  |  |  |  |  | human isotype IgG4 (antibody) | 
5 |  |  | 12.4 | 0.7 | 0.3 | 0.02 | 0.6 | 0.4 | 0.3 | 0.0202 | GB7011 (antibody) | koff (Human CD24 (human)): 0.0104 s⁻¹; kon (Human CD24 (human)): 839000 M⁻¹ s⁻¹; IC50 (read off the curve) (CD24-his protein (human) [7]): 2 µg/mL; EC50 (read off the curve) [9]: 0.3 µg/mL; EC50 (read off the curve) (CD24-his-GST(Ecoli)): 0.02 µg/mL
